To fix the notation:
B1: N27D V29Y A30G V31L A32V S33K A36D L40V: Gaussia luciferase mutant (protein)
chain: MGVKVLFALICIAVAEAKPTENNEDFDIYGLVKNFDTTDVDADRGKLPGKKLPLEVLKEMEANARKAGCTRGCLICLSHIKCTPKMKKFIPGRCHTYEGDKESAQGGIGEAIVDIPEIPGFKDLEPMEQFIAQVDLCVDCTTGCLKGLANVQCSDLLKKWLPQRCATFASKIQGQVDKIKGAGGD
modifications: SIGNAL (1)..(17)
notes: Gaussia luciferase mutant
B2: A42G Q152H T167G S170T G174N K178S A182Y G183A: Gaussia luciferase mutant (protein)
chain: MGVKVLFALICIAVAEAKPTENNEDFNIVAVASNFATTDLDGDRGKLPGKKLPLEVLKEMEANARKAGCTRGCLICLSHIKCTPKMKKFIPGRCHTYEGDKESAQGGIGEAIVDIPEIPGFKDLEPMEQFIAQVDLCVDCTTGCLKGLANVHCSDLLKKWLPQRCAGFATKIQNQVDSIKGYAGD
modifications: SIGNAL (1)..(17)
notes: Gaussia luciferase mutant
B3: P53L: Gaussia luciferase mutant (protein)
chain: B1 chain with D27N, Y29V, G30A, L31V, V32A, K33S, D36A, V40L, P53L
modifications: SIGNAL (1)..(17)
notes: Gaussia luciferase mutant
B4: N27Y V29G A30D V31L A32V S33V A36G T37D L40F Y97*: Gaussia luciferase mutant (protein)
chain: MGVKVLFALICIAVAEAKPTENNEDFYIGDLVVNFGDTDFDADRGKLPGKKLPLEVLKEMEANARKAGCTRGCLICLSHIKCTPKMKKFIPGRCHTEGDKESAQGGIGEAIVDIPEIPGFKDLEPMEQFIAQVDLCVDCTTGCLKGLANVQCSDLLKKWLPQRCATFASKIQGQVDKIKGAGGD
modifications: SIGNAL (1)..(17)
notes: Gaussia luciferase mutant
B5: K66R H79K P84K E102D S103I A104G L124M V138E: Gaussia luciferase mutant (protein)
chain: MGVKVLFALICIAVAEAKPTENNEDFNIVAVASNFATTDLDADRGKLPGKKLPLEVLKEMEANARRAGCTRGCLICLSKIKCTKKMKKFIPGRCHTYEGDKDIGQGGIGEAIVDIPEIPGFKDMEPMEQFIAQVDLCEDCTTGCLKGLANVQCSDLLKKWLPQRCATFASKIQGQVDKIKGAGGD
modifications: SIGNAL (1)..(17)
notes: Gaussia luciferase mutant
B6: K66R P84A E102K A104G E110A L124M V138E: Gaussia luciferase mutant (protein)
chain: B5 chain with K79H, K84A, D102K, I103S, E110A
modifications: SIGNAL (1)..(17)
notes: Gaussia luciferase mutant

Numbering of substitutions follows the chain as printed. Names and notes keep the numbering of the source.

The first assay in a line: Luminescence activity assay of purified Gaussia luciferase mutants on coelenterazine. Type of assay: biochemical. Set-up: key to Activity of mutant relative to wild-type Gaussia luciferase without the signal peptide: ratio of mutant luminescence intensity to wild-type Gaussia luciferase. The following applies: Substrate CTZ (Table 16). A digest of the protocol:
(§1)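 Readout: luminescence intensity, as ratio to signal-peptide-free wild-type enzyme. Enzyme 1 μg/mL, substrate 100 μM stock, 10 μL + 90 μL; buffer 50 mM Tris-HCl pH 8.0, 100 mM NaCl, 0.1% Tween-20.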
On to B1, for which the “Activity of mutant relative to wild-type Gaussia luciferase without the signal peptide” value amounted to 0.146.

Consider B2, for which the “Activity of mutant relative to wild-type Gaussia luciferase without the signal peptide” value was 0.568.

With B3, the “Activity of mutant relative to wild-type Gaussia luciferase without the signal peptide” value is recorded as 0.007.

As for B4, the “Activity of mutant relative to wild-type Gaussia luciferase without the signal peptide” value worked out at 0.000.

With B5, the “Activity of mutant relative to wild-type Gaussia luciferase without the signal peptide” value was determined as 0.407.

With B6, the “Activity of mutant relative to wild-type Gaussia luciferase without the signal peptide” value turned out to be 1.073.

The next assay in a line: Luminescence activity assay of purified Gaussia luciferase mutants on fluoro-coelenterazine. Type of assay: biochemical. Details: key to Activity of mutant relative to wild-type Gaussia luciferase without the signal peptide: ratio of mutant luminescence intensity to wild-type Gaussia luciferase. As to conditions: Substrate f-CTZ (Table 16). A digest of the protocol:
as §1
Regarding B1, the “Activity of mutant relative to wild-type Gaussia luciferase without the signal peptide” value turned out to be 0.155.

Consider B2, for which the “Activity of mutant relative to wild-type Gaussia luciferase without the signal peptide” value is given as 0.657.

For the molecule B3, the “Activity of mutant relative to wild-type Gaussia luciferase without the signal peptide” value is recorded as 0.010.

For B4, the “Activity of mutant relative to wild-type Gaussia luciferase without the signal peptide” value turned out to be 0.009.

B5: the “Activity of mutant relative to wild-type Gaussia luciferase without the signal peptide” value was 0.857.

Turning to B6, the “Activity of mutant relative to wild-type Gaussia luciferase without the signal peptide” value was determined as 10.315.

A short description of a further assay: Luminescence activity assay of purified Gaussia luciferase mutants on coelenterazine derivative ZS2. Type of assay: biochemical. Details: key to Activity of mutant relative to wild-type Gaussia luciferase without the signal peptide: ratio of mutant luminescence intensity to wild-type Gaussia luciferase. The following applies: Substrate ZS2 (Table 16). The method in brief: as §1
For B1, the “Activity of mutant relative to wild-type Gaussia luciferase without the signal peptide” value is on record as 0.120.

In the case of B2, the “Activity of mutant relative to wild-type Gaussia luciferase without the signal peptide” value was found to be 0.001.

As for B3, the “Activity of mutant relative to wild-type Gaussia luciferase without the signal peptide” value came to 0.002.

As for B4, the “Activity of mutant relative to wild-type Gaussia luciferase without the signal peptide” value is reported as 0.001.

Consider B5, for which the “Activity of mutant relative to wild-type Gaussia luciferase without the signal peptide” value is 0.459.

With B6, the “Activity of mutant relative to wild-type Gaussia luciferase without the signal peptide” value is reported as 2.637.

These data come from patent US20250066745A1, “MUTANTS AND USE THEREOF” (BGI SHENZHEN, priority 2021, published 2025).
